Test results published in patent US20080105961A1, “Ligands of the Molecule Fit (Agt-121) and their Pharmaceutical Use” (priority 2004, published 2008).
Marks after values point to notes of the source that are not given here.

How the values were obtained:
[1] = target: T1, FIT-NP (FIT N-terminal plus proline-rich region) (Homo sapiens, UniProt Q9BQI5); experiment: Yeast two-hybrid screen of human brain cDNA library, bait FIT-NP; type: binding; conditions: for Number of clones: bait FIT-NP, human brain cDNA library, clones listed highest to lowest interacting strength; for strength of interaction with FIT: in yeast
T1 construct: expressed in transfected cells
T1 sequence (Q9BQI5 with tags, fused parts or gaps I33M/P40L/N43H/V56A/I186T/P191L/T195L/E211G/Q212H/I230V/T240A/N255T/I269V/G270A/P271T/S276A/V280A/L285P/N289S/A308T/K311T/T318A/S335T/T339A/P340S/N342I/A348T/L352P/P357S/T358A/DEL367-367/L371P/I397L/D402E/F403C/A409E/P432S/P434T/T437A/R454S/S455C/T456S): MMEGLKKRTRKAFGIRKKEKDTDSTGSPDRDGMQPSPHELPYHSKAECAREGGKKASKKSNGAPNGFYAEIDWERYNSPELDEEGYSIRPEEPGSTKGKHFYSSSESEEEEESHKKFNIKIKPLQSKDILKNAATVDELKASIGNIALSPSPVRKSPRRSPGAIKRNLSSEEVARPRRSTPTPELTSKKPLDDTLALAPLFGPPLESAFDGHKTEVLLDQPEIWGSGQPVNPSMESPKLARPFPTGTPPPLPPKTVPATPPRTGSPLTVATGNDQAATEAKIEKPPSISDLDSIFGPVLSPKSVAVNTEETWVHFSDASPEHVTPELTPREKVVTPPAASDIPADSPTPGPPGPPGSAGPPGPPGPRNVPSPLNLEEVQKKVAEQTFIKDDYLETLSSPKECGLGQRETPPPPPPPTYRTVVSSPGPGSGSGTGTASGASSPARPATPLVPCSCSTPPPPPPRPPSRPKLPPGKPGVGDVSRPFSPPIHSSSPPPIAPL
Source text: (§1) In order to perform these experiments, two truncated fragments of FIT were constructed to be used as baits in a yeast two-hybrid screen of a human brain cDNA library: one bait consisting of the N-terminal region plus the central proline-rich region, and the other bait consisting of the central proline-rich region alone. The inventors utilised a yeast two-hybrid system which incorporates modifications by Chevray and Nathans (1992), and Vidal et al. (1996) to screen a human brain cDNA library. FIT fragments were PCR amplified, purified and then cloned into an appropriate vector. Sense oligonucleotides for FIT-NP (5′-[…]-3′: SEQ ID NO:72), and FIT-PR (5′-[…]-3′: SEQ ID NO:73), with Sal1 restriction enzyme sites underlined, were used in conjunction with a common antisense oligonucleotide (5′-[…]-3′: SEQ ID NO:74), with the Not1 restriction enzyme site underlined.
(§2) Human brain cDNA inserts were prepared and cloned into the expression vector according to manufacturer's instructions.

melanocortin receptor = experiment: Feeding response to ICV injection of SHU9119 after three days of ODN or saline infusion; type: in vivo, Sprague Dawley rats; conditions: mean ± SEM
Source text: To further analyse the link between FIT and the melanocortin system, the feeding response of Sprague Dawley rats to an ICV injection of SHU9119, a melanocortin receptor antagonist and known feeding stimulator was investigated. After three days of FIT antisense treatment, jumbled oligonucleotide or saline infusion, responses were compared to rats receiving an ICV injection of saline vehicle rather than SHU9119.

[2] = target: T2, FIT-PR (FIT proline-rich region) (Homo sapiens, UniProt Q9BQI5); experiment: Yeast two-hybrid screen of human brain cDNA library, bait FIT-PR; type: binding; conditions: clones listed highest to lowest interacting strength
T2 construct: expressed in transfected cells
T2 sequence (Q9BQI5 with tags, fused parts or gaps N255T/I269V/G270A/P271T/S276A/V280A/L285P/N289S/A308T/K311T/T318A/S335T/T339A/P340S/N342I/A348T/L352P/P357S/T358A/DEL367-367/L371P/I397L/D402E/F403C/P432S/P434T/T437A/R454S/S455C/T456S): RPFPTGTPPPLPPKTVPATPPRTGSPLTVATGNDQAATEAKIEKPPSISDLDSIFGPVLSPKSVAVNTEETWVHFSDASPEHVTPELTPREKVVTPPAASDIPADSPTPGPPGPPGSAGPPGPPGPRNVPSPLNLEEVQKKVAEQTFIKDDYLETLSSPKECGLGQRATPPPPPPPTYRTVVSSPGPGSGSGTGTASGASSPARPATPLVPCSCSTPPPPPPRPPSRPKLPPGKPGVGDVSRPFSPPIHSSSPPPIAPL
Source text: as §1, with “To investigate the mechanism by which FIT regulates energy balance, neural proteins that interact with FIT were identified. In” for “In”
as §2

Question: Which results are given for “β-arrestin 1: FIT interacting protein isolated from a human brain cDNA library”?
Answer: Number of clones [1]: 1; strength of interaction with FIT [1]: slightly lesser strength

Question: What does the source list for SHU9119?
Answer: Δ FI (melanocortin receptor; 48 hr food intake post minus pre injection): 0.02 ± 0.01 g/g BW; 48 hr FI post injection (melanocortin receptor; food intake relative to body weight, after ICV SHU9119 or vehicle injection): 0.16 ± 0.01^a g/g BW; 48 hr FI pre injection (melanocortin receptor; food intake relative to body weight, during ICV infusion, before SHU9119 or vehicle injection): 0.14 ± 0.01 g/g BW

Question: How did the Number of clones [1] turn out when “MAD2: FIT interacting protein isolated from a human brain cDNA library” was run?
Answer: 1

B1: endophilin 3: FIT interacting protein isolated from a human brain cDNA library (protein)
chain: MSVAGLKKQFHKASQLFSEKISGAEGTKLDDEFLDMERKIDVTNKVVAEILSKTTEYLQPNPAYRAKLGMLNTVSKIRGQVKTTGYPQTEGLLGDCMLKYGKELGEDSTFGNALIEVGESMKLMAEVKDSLDINVKQTFIDPLQLLQDKDLKEIGHHLKKLEGRRLDYDYKKKRVGKIPDEEVRQAVEKFEESKELAERSMFNFLENDVEQVSQLAVFIEAALDYHRQSTEILQELQSKLQMRISAASSVPRREYKPRPVKRSSSELNGVSTTSVVKTTGSNIPMDQPCCRGLYDFEPENQGELGFKEGDIITLTNQIDENWYEGMIHGESGFFPINYVEVIVPLPQ
modifications: left off: large carriers
Question: With B1 as the molecule, how does the Number of clones [1] read?
Answer: 7

Question: What about the “strength of interaction with FIT” value [1] of the same molecule?
Answer: very strongly

Question: What about the Number of clones [2] of the same molecule?
Answer: 2

B2: endophilin 1: FIT interacting protein isolated from a human brain cDNA library (protein)
chain: MSVAGLKKQFHKATQKVSEKVGGAEGTKLDDDFKEMERKVDVTSRAVMEIMTKTIEYLQPNPASRAKLSMINTMSKIRGQEKGPGYPQAEALLAEAMLKFGRELGDDCNFGPALGEVGEAMRELSEVKDSLDIEVKQNFIDPLQNLHDKDLREIQHHLKKLEGRRLDFDYKKKRQGKIPDEELRQALEKFDESKEIAESSMFNLLEMDIEQVSQLSALVQAQLEYHKQAVQILQQVTVRLEERIRQASSQPRREYQPKPRMSLEFPTGDSTQPNGGLSHTGTPKPSGVQMDQPCCRALYDFEPENEGELGFKEGDIITLTNQIDENWYEGMLHGHSGFFPINYVEILVALPH
modifications: left off: large carriers
Question: Which results are given for B2?
Answer: Number of clones [1]: 14; strength of interaction with FIT [1]: very strongly; Number of clones [2]: 12

B3: α-1 subunit of the AP2 complex: FIT interacting protein isolated from a human brain cDNA library (protein)
chain: MPAVSKGDGMRGLAVFISDIRNCKSKEAEIKRINKELANIRSKFKGDKALDGYSKKKYVCKLLFIFLLGHDIDFGHMEAVNLLSSNKYTEKQIGYLFISVLVNSNSELIRLINNAIKNDLASRNPTFMCLALHCIANVGSREMGEAFAADIPRILVAGDSMDSVKQSAALCLLRLYKASPDLVPMGEWTARVVHLLNDQHMGVVTAAVSLITCLCKKNPDDFKTCVSLAVSRLSRIVSSASTDLQDYTYYFVPAPWLSVKLLRLLQCYPPPEDAAVKGRLVECLETVLNKAQEPPKSKKVQHSNAKNAILFETISLIIHYDSEPNLLVRACNQLGQFLQHRETNLRYLALESMCTLASSEFSHEAVKTHIDTVINALKTERDVSVRQRAADLLYAMCDRSNAKQIVSEMLRYLETADYAIREEIVLKVAILAEKYAVDYSWYVDTILNLIRIAGDYVSEEVWYRVLQIVTNRDDVQGYAAKTVFEALQAPACHENMVKVGGYILGEFGNLIAGDPRSSPPVQFSLLHSKFHLCSVATRALLLSTYIKFINLFPETKATIQGVLRAGSQLRNADVELQQRAVEYLTLSSVASTDVLATVLEEMPPFPERESSILAKLKRKKGPGAGSALDDGRRDPSSNDINGGMEPTPSTVSTPSPSADLLGLRAAPPPAAPPASAGAGNLLVDVFDGPAAQPSLGPTPEEAFLSELEPPAPESPMALLADPAPAADPGPEDIGPPIPEADELLNKFVCKNNGVLFENQLLQIGVKSEFRQNLGRMYLFYGNKTSVQFQNFSPTVVHPGDLQTQLAVQTKRVAAQVDGGAQVQQVLNIECLRDFLTPPLLSVRFRYGGAPQALTLKLPVTINKFFQPTEMAAQDFFQRWKQLSLPQQEAQKIFKANHPMDAEVTKAKLLGFGSALLDNVDPNPENFVGAGIIQTKALQVGCLLRLEPNAQAQMYRLTLRTSKEPVSRHLCELLAQQF
modifications: left off: large carriers
Question: With B3 as the molecule, how does the Number of clones [1] read?
Answer: 8

Question: What about the “strength of interaction with FIT” value [1] of the same molecule?
Answer: slightly lesser strength

B4: α-2 subunit of the AP2 complex: FIT interacting protein isolated from a human brain cDNA library (protein)
chain: MPAVSKGDGMRGLAVFISDIRNCKSKEAEIKRINKELANIRSKFKGDKALDGYSKKKYVCKLLFIFLLGHDIDFGHMEAVNLLSSNRYTEKQIGYLFISVLVNSNSELIRLINNAIKNDLASRNPTFMGLALHCIASVGSREMAEAFAGEIPKVLVAGDTMDSVKQSAALCLLRLYRTSPDLVPMGDWTSRVVHLLNDQHLGVVTAATSLITTLAQKNPEEFKTSVSLAVSRLSRIVTSASTDLQDYTYYFVPAPWLSVKLLRLLQCYPPPDPAVRGRLTECLETILNKAQEPPKSKKVQHSNAKNAVLFEAISLIIHHDSEPNLLVRACNQLGQFLQHRETNLRYLALESMCTLASSEFSHEAVKTHIETVINALKTERDVSVRQRAVDLLYAMCDRSNAPQIVAEMLSYLETADYSIREEIVLKVAILAEKYAVDYTWYVDTILNLIRIAGDYVSEEVWYRVIQIVINRDDVQGYAAKTVFEALQAPACHENLVKVGGYILGEFGNLIAGDPRSSPLIQFHLLHSKFHLCSVPTRALLLSTYIKFVNLFPEVKPTIQDVLRSDSQLRNADVELQQRAVEYLRLSTVASTDILATVLEEMPPFPERESSILAKLKKKKGPSTVTDLEDTKRDRSVDVNGGPEPAPASTSAVSTPSPSADLLGLGAAPPAPAGPPPSSGGSGLLVDVFSDSASVVAPLAPGSEDNFARFVCKNNGVLFENQLLQIGLKSEFRQNLGRMFIFYGNKTSTQFLNFTPTLICSDDLQPNLNLQTKPVDPTVEGGAQVQQVVNIECVSDFTEAPVLNIQFRYGGTFQNVSVQLPITLNKFFQPTEMASQDFFQRWKQLSNPQQEVQNIFKAKHPMDTEVTKAKIIGFGSALLEEVDPNPANFVGAGIIHTKTTQIGCLLRLEPNLQAQMYRLTLRTSKEAVSQRLCELLSAQF
modifications: left off: large carriers
Question: Which Number of clones [1] does the source give for B4 here?
Answer: 1

Question: And the “strength of interaction with FIT” value [1]?
Answer: slightly lesser strength

B5: RNA-binding protein EWS: FIT interacting protein isolated from a human brain cDNA library (protein)
chain: MASTDYSTYSQAAAQQGYSAYTAQPTQGYAQTTQAYGQQSYGTYGQPTDVSYTQAQTTATYGQTAYATSYGQPPTGYTTPTAPQAYSQPVQGYGTGAYDTTTATVTTTQASYAAQSAYGTQPAYPAYGQQPAATAPTRPQDGNKPTETSQPQSSTGGYNQPSLGYGQSNYSYPQVPGSYPMQPVTAPPSYPPTSYSSTQPTSYDQSSYSQQNTYGQPSSYGQQSSYGQQSSYGQQPPTSYPPQTGSYSQAPSQYSQQSSSYGQQSSFRQDHPSSMGVYGQESGGFSGPGENRSMSGPDNRGRGRGGFDRGGMSRGGRGGGRGGMGSAGERGGFNKPGGPMDEGPDLDLGPPVDPDEDSDNSAIYVQGLNDSVTLDDLADFFKQCGVVKMNKRTGQPMIHIYLDKETGKPKGDATVSYEDPPTAKAAVEWFDGKDFQGSKLKVSLARKKPPMNSMRGGLPPREGRGMPPPLRGGPGGPGGPGGPMGRMGGRGGDRGGFPPRGPRGSRGNPSGGGNVQHRAGDWQCPNPGCGNQNFAWRTECNQCKAPKPEGFLPPPFPPPGGDRGRGGPGGMRGGRGGLMDRGGPGGMFRGGRGGDRGGFRGGRGMDRGGFGGGRRGGPGGPPGPLMEQMGGRRGGRGGPGKMDKGEHRQERRDRPY
modifications: left off: large carriers
Question: With B5 as the molecule, how does the Number of clones [1] read?
Answer: 1
